We go through 31 molecules from patent publication US20260008815A1, “CYCLIC PEPTIDE OR SALT THEREOF, AND USES THEREOF” (FUJIFILM Corporation, priority 2023, published 2026).

The experiment deals with T1, Recombinant Human FGFR2 alpha (IIIc) Fc Chimera Protein, CF (R&D systems, 712-FR-050) (human, UniProt P21802 22-377).
T1 construct: bought; not shown: Fc part of the chimera
As to the kind of experiment: ELISA on plate-bound FGFR2-Fc. The essentials: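 Plate-immobilized FGFR2 alpha (IIIc)-Fc (5 ng/well) incubated with peptide 3 h at room temperature, then anti-Myc antibody 2 h and chemiluminescent ELISA substrate. Signal corrected by subtracting FGFR-free wells; binding affinity scored into categories from the dose-response.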
(In general: An ELISA detects its analyte on a solid surface through an enzyme-linked reagent.)

Bridge positions count the residues as written; N and C are the ends. Ends that are not written are not given here. COCH2 = acetyl group that carries the bridge

T1 sequence (P21802 22-377, change not shown): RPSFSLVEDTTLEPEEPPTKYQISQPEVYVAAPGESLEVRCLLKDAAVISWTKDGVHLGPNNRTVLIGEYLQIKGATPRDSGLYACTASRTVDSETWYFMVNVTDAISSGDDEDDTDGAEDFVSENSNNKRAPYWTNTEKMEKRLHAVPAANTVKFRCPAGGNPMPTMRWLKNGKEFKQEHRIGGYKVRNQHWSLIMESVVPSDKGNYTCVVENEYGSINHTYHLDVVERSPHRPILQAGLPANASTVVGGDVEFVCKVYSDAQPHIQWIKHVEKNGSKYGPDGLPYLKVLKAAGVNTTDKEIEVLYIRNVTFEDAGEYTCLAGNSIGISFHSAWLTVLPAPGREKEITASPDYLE

Regarding YCEENYLDPEHYQYFIYFK(COCH2)Y (thioether 2-19 (inferred)) [cyclic peptide SEQ ID NO: 251], the “ELISA luminescence signal at 10 nmol/L peptide, relative to SEQ ID NO: 47 (=1)” value is 0.1 to 0.5 ratio.

As for YCEENYLDPEQYQYFYYFK(COCH2)Y (thioether 2-19 (inferred)) [cyclic peptide SEQ ID NO: 281], the “ELISA luminescence signal at 10 nmol/L peptide, relative to SEQ ID NO: 47 (=1)” value is at least 0.7 ratio.

For YCEENYLDPEQYQYLIYFK(COCH2)Y (thioether 2-19 (inferred)) [cyclic peptide SEQ ID NO: 275], the “ELISA luminescence signal at 10 nmol/L peptide, relative to SEQ ID NO: 47 (=1)” value was at least 0.7 ratio.

Consider YCEENYLDPEQYTYFIYFK(COCH2)Y (thioether 2-19 (inferred)) [cyclic peptide SEQ ID NO: 266], for which the “ELISA luminescence signal at 10 nmol/L peptide, relative to SEQ ID NO: 47 (=1)” value was at least 0.7 ratio.

For YCEENYLDPEQYQYYIYFK(COCH2)Y (thioether 2-19 (inferred)) [cyclic peptide SEQ ID NO: 276], the “ELISA luminescence signal at 10 nmol/L peptide, relative to SEQ ID NO: 47 (=1)” value fell in the range of 0.5 to 0.7 ratio.

In the case of YCEENYLDPEQIQYFIYFK(COCH2)Y (thioether 2-19 (inferred)) [cyclic peptide SEQ ID NO: 253], the “ELISA luminescence signal at 10 nmol/L peptide, relative to SEQ ID NO: 47 (=1)” value lay within 0.1 to 0.5 ratio.

Consider YCEENYLDPEQYRYFIYFK(COCH2)Y (thioether 2-19 (inferred)) [cyclic peptide SEQ ID NO: 269], for which the “ELISA luminescence signal at 10 nmol/L peptide, relative to SEQ ID NO: 47 (=1)” value is at least 0.7 ratio.

As for YCEENYLDPEQYVYFIYFK(COCH2)Y (thioether 2-19 (inferred)) [cyclic peptide SEQ ID NO: 260], the “ELISA luminescence signal at 10 nmol/L peptide, relative to SEQ ID NO: 47 (=1)” value was at least 0.7 ratio.

In the case of YCEENYLDPEQYFYFIYFK(COCH2)Y (thioether 2-19 (inferred)) [cyclic peptide SEQ ID NO: 261], the “ELISA luminescence signal at 10 nmol/L peptide, relative to SEQ ID NO: 47 (=1)” value lay within 0.5 to 0.7 ratio.

On to YCEENYLDPEQLQYFIYFK(COCH2)Y (thioether 2-19 (inferred)) [cyclic peptide SEQ ID NO: 252], for which the “ELISA luminescence signal at 10 nmol/L peptide, relative to SEQ ID NO: 47 (=1)” value lay within 0.1 to 0.5 ratio.

Turning to YCEENYLDPEQYIYFIYFK(COCH2)Y (thioether 2-19 (inferred)) [cyclic peptide SEQ ID NO: 259], the “ELISA luminescence signal at 10 nmol/L peptide, relative to SEQ ID NO: 47 (=1)” value is at least 0.7 ratio.

YCEENYLDPEQYSYFIYFK(COCH2)Y (thioether 2-19 (inferred)) [cyclic peptide SEQ ID NO: 265]: the “ELISA luminescence signal at 10 nmol/L peptide, relative to SEQ ID NO: 47 (=1)” value was at least 0.7 ratio.

In the case of YCEENYLDPEQYWYFIYFK(COCH2)Y (thioether 2-19 (inferred)) [cyclic peptide SEQ ID NO: 263], the “ELISA luminescence signal at 10 nmol/L peptide, relative to SEQ ID NO: 47 (=1)” value is at least 0.7 ratio.

In the case of YCEENYLDPEQYQYFGYFK(COCH2)Y (thioether 2-19 (inferred)) [cyclic peptide SEQ ID NO: 277], the “ELISA luminescence signal at 10 nmol/L peptide, relative to SEQ ID NO: 47 (=1)” value is 0.1 to 0.5 ratio.

As for YCEENYLDPEQYQYFLYFK(COCH2)Y (thioether 2-19 (inferred)) [cyclic peptide SEQ ID NO: 278], the “ELISA luminescence signal at 10 nmol/L peptide, relative to SEQ ID NO: 47 (=1)” value is at least 0.7 ratio.

As to YCEENYLDPEQYNYFIYFK(COCH2)Y (thioether 2-19 (inferred)) [cyclic peptide SEQ ID NO: 264], the “ELISA luminescence signal at 10 nmol/L peptide, relative to SEQ ID NO: 47 (=1)” value was at least 0.7 ratio.

On to YCEENYLDPEQYLYFIYFK(COCH2)Y (thioether 2-19 (inferred)) [cyclic peptide SEQ ID NO: 258], for which the “ELISA luminescence signal at 10 nmol/L peptide, relative to SEQ ID NO: 47 (=1)” value was at least 0.7 ratio.

In the case of YCEENYLDPEQWQYFIYFK(COCH2)Y (thioether 2-19 (inferred)) [cyclic peptide SEQ ID NO: 255], the “ELISA luminescence signal at 10 nmol/L peptide, relative to SEQ ID NO: 47 (=1)” value was at least 0.7 ratio.

Regarding YCEENYLDPEQYHYFIYFK(COCH2)Y (thioether 2-19 (inferred)) [cyclic peptide SEQ ID NO: 270], the “ELISA luminescence signal at 10 nmol/L peptide, relative to SEQ ID NO: 47 (=1)” value was at least 0.7 ratio.

For the molecule YCEENYLDPEQYQIFIYFK(COCH2)Y (thioether 2-19 (inferred)) [cyclic peptide SEQ ID NO: 271], the “ELISA luminescence signal at 10 nmol/L peptide, relative to SEQ ID NO: 47 (=1)” value fell in the range of 0.1 to 0.5 ratio.

Regarding YCEENYLDPEQYQYFFYFK(COCH2)Y (thioether 2-19 (inferred)) [cyclic peptide SEQ ID NO: 280], the “ELISA luminescence signal at 10 nmol/L peptide, relative to SEQ ID NO: 47 (=1)” value is at least 0.7 ratio.

With YCEENYLDPEQYQNFIYFK(COCH2)Y (thioether 2-19 (inferred)) [cyclic peptide SEQ ID NO: 273], the “ELISA luminescence signal at 10 nmol/L peptide, relative to SEQ ID NO: 47 (=1)” value is 0.1 to 0.5 ratio.

For YCEENYLDPEQYQHFIYFK(COCH2)Y (thioether 2-19 (inferred)) [cyclic peptide SEQ ID NO: 274], the “ELISA luminescence signal at 10 nmol/L peptide, relative to SEQ ID NO: 47 (=1)” value is 0.1 to 0.5 ratio.

With YCEENYLDPEQYYYFIYFK(COCH2)Y (thioether 2-19 (inferred)) [cyclic peptide SEQ ID NO: 262], the “ELISA luminescence signal at 10 nmol/L peptide, relative to SEQ ID NO: 47 (=1)” value is at least 0.7 ratio.

YCEENYLDPEQYDYFIYFK(COCH2)Y (thioether 2-19 (inferred)) [cyclic peptide SEQ ID NO: 267]: the “ELISA luminescence signal at 10 nmol/L peptide, relative to SEQ ID NO: 47 (=1)” value is at least 0.7 ratio.

Turning to YCEENYLDPEQYQYFVYFK(COCH2)Y (thioether 2-19 (inferred)) [cyclic peptide SEQ ID NO: 279], the “ELISA luminescence signal at 10 nmol/L peptide, relative to SEQ ID NO: 47 (=1)” value is at least 0.7 ratio.

YCEENYLDPEQHQYFIYFK(COCH2)Y (thioether 2-19 (inferred)) [cyclic peptide SEQ ID NO: 256]: the “ELISA luminescence signal at 10 nmol/L peptide, relative to SEQ ID NO: 47 (=1)” value is at least 0.7 ratio.

With YCEENYLDPEQFQYFIYFK(COCH2)Y (thioether 2-19 (inferred)) [cyclic peptide SEQ ID NO: 254], the “ELISA luminescence signal at 10 nmol/L peptide, relative to SEQ ID NO: 47 (=1)” value was at least 0.7 ratio.

YCEENYLDPEQYGYFIYFK(COCH2)Y (thioether 2-19 (inferred)) [cyclic peptide SEQ ID NO: 257]: the “ELISA luminescence signal at 10 nmol/L peptide, relative to SEQ ID NO: 47 (=1)” value was at least 0.7 ratio.

With YCEENYLDPEQYEYFIYFK(COCH2)Y (thioether 2-19 (inferred)) [cyclic peptide SEQ ID NO: 268], the “ELISA luminescence signal at 10 nmol/L peptide, relative to SEQ ID NO: 47 (=1)” value is at least 0.7 ratio.

On to YCEENYLDPEQYQFFIYFK(COCH2)Y (thioether 2-19 (inferred)) [cyclic peptide SEQ ID NO: 272], for which the “ELISA luminescence signal at 10 nmol/L peptide, relative to SEQ ID NO: 47 (=1)” value is at least 0.7 ratio.
